According to patent publication US10393755B2, “Compositions and methods for treating eye infections and disease” (UNIVERSITY OF VIRGINIA PATENT FOUNDATION, priority 2014, dated 2019):

Legend:
[1] = Phase behavior and nanoparticle formation (optical density, DLS, TEM); type: physicochemical; set-up: Phase transition temperature / Tt1, critical micelle temperature (CMT): dose or concentration left out as unconfirmed
Method: The phase diagram for LSI fusion protein was characterized by optical density change at 350 nm as a function of solution temperature using a DU800 UV-Vis Spectrophotometer (Beckman Coulter, Brea, Calif.). Tt was defined at the point of the maximum first derivative. Self-assembly of nanoparticles was measured using dynamic light scattering (DLS) using a DynaPro-LSR Plate Reader (Wyatt Technology, Santa Barbara, Calif.). Light scattering data were collected at regular temperature intervals (1° C.) as solutions were heated from 5 to 50° C. The results were analyzed using a Rayleigh sphere model and fitted into a cumulant algorithm based on the sum-of-squares value.
The TEM imaging was carried out on a FEI Tecnai 12 TWIN microscope (Hillsboro, Oreg.) at 100 kV. Briefly, a 100 uM solution (5 uL) was initially deposited on a copper grid with carbon film (CF400-Cu, Election Microscopy Sciences, Hatfield, Pa.). After removing the excess amount of solution with filter paper, the samples were negatively stained with 2% uranyl acetate, followed by removing excess uranyl acetate after 30 s. b The samples were then dried under room temperature for at least 3 h before use in imaging.

[2] = system: NOD mice corneal epithelium; test: Murine corneal abrasion and recovery study; type: in vivo, mouse
Method: Briefly, 12 week female NOD mice were anesthetized with an i.p. injection of xylaxine/ketamine (60-70 mg+5 mg/kg) and placed on a heating pad. After cleaning the ocular surface with eye wash (OCuSOFT, Inc., TX), the corneal epithelium of the right eye was removed down to the basement membrane using an algerbrush II (The Alger Company, Inc., TX); the left eye was left intact as a contra lateral control. Mice were allowed to heal for 24 h with 2 doses ([…]) of KSFM medium containing BPE (50 mg/ml) and EGF (5 ng/ml), […] LSI, […] SI, or no treatment at 12 h intervals. After staining the ocular surface with […] 0.6 mg/ml fluorescein (Akorn, Ill.), images of the abrasion wound were captured using a Moticam 2300 camera after 12 h and 24 h.

[3] = system: HCE-T monolayers; test: In vitro scratch closure assay; type: cell-based, human; settings: 10 nM, 24 h, compared to plain medium without growth factors
Method: For a scratch assay, confluent HCE-T monolayers were scraped in a straight line to create a scratch wound with a p200 pipet tip. Cells were rinsed with KSFM medium without BPE or EGF to remove debris and then incubated with fresh KSFM medium containing BPE (50 mg/ml) and EGF (5 ng/ml), LSI, or medium without growth factors (No treat). Phase contrast images of the wound at the beginning and after 24 h treatment were captured using Zeiss LSM 510 Meta confocal microscope system.

[4] = system: HCE-Ts; test: Exogenous cell uptake assay (rhodamine labeled); type: cell-based, human; settings: NHS-rhodamine labeled
Method: SI and LSI nanoparticles were conjugated with NHS-rhodamine (Thermo Fisher Scientific Inc, Rockford, Ill.) via covalent modification of the amino terminus. Conjugation was performed in 100 mM borate buffer (pH 8.0) for 2 h (LSI) or overnight (SI) at 4° C. followed by desalting on a PD10 column (GE Healthcare, Piscataway, N.J.) to remove free dye. Briefly, after the cells were rinsed with fresh medium without BPE and EGF, […] rhodamine labeled proteins were added into the dish. After incubation at 37° C. for different time points, the cells were rinsed and images were acquired using Zeiss LSM 510 Meta confocal microscope system.

[5] = system: HCE-T cells; test: Ca2+ imaging (Fluo-4 AM); type: cell-based, human
Method: SV40-immortalized HCE-T cells (Riken Cell Bank, Japan) were grown in keratinocyte-SFM media (KSFM, Life Technologies, Rockville, Md.) containing bovine pituitary extract (BPE, 50 mg/ml) and epidermal growth factor (EGF, 5 ng/ml). Cell passages 4-6 were used for Ca2+ imaging, scratch and uptake assays in 35 mm coverslip-bottomed dishes. To optimize responsiveness upon stimuli, cells were starved with EGF and BPE free medium for 24 h before experimentation.
HCE-Ts were rinsed twice with Ca2+ and Mg2+ free phosphate buffer saline (PBS) and incubated at 37° C. for 20 min fresh KSFM medium containing […] calcium probe Fluo-4 AM (Invitrogen Life technologies, NY). […] The cells were illuminated at 488 nm, and their emission was monitored every 3.15 s at 510 nm using Zeiss LSM 510 Meta confocal microscope system. The field of interest contained 24 to 45 cells, and the fluorescent intensity change was calculated for each region with image-analysis software. Ca2+ dynamics were evaluated using the changes in fluorescence intensity of Fluo-4 AM. The data are presented as percentage change in fluorescence intensity at each time point (Ft) to the first time point (F0) reading: (Ft−F0)/F0×100%.

B1: LSI: lacritin fused to diblock ELP (VPGSG)48(VPGIG)48; forms thermoresponsive nanoparticles (protein)
chain: GEDASSDSTGADPAQEAGTSKPNEEISGPAEPASPPETTTTAQETSAAAVQGTAKVTSSRQELNPLKSIVEKSILLTEQALAKAGKGMHGGVPGGKQFIENGSEFAQKLLKKFSLLKPWAGLVPRGSGVPGSGVPGIGY
modifications: ELP lacritin fusion construct; (129)..(133) the sequence VPGSG is directly repeated 48 times; (134)..(138) The sequence VPGIG is directly repeated 48 times
notes: forms thermoresponsive nanoparticles
[1]
  Tt1, critical micelle temperature (CMT): 32.3 °C
[1]; DLS, 37° C.
  Hydrodynamic radius compared with LS96: much larger hydrodynamic radius than LS96
[1]; above Tt
  Nanoparticle size by DLS above Tt: 130-140 nm
[1]; below Tt
  Nanoparticle size by DLS below Tt: 30-40 nm
[1]; dried from room temperature
  Average diameter by TEM: 67.1+/−11.5 nm
[1]; optical density
  Phase transition temperature: 18.4 °C
[2]; 5 ml of 100 mM topical at 0 and 12 h, 12 and 24 hours, compared to SI, EGF+BPE, no treatment
  Percentage of initial wound area (PctArea): significantly decreased
[2]; 12 h, eight mice per group
  Abrasion wound healing, LSI compared with LS96: significantly (p<0.05) faster
[2]; hematoxylin and eosin
  Corneal epithelium histology after 24 h: complete recovery
[3]
  Scratch wound healing: significantly accelerated scratch wound healing
[4]
  Cytosolic fluorescence (cell uptake): significantly higher cytosolic fluorescence than SI nanoparticles
  Time to significant cell entry: 10 m
[5]; Fluo-4 AM loaded HCE-T cells
  Maximum fluorescence intensity change compared to baseline (F0): 4.399+/−1.043 fold
[5]; same concentration, second time, from 40
  Ca2+ influx peak duration on second treatment: 70 s
